Results on one molecule are retold here after patent publication US20220298244A1 (BEIJING MABWORKS BIOTECH, published 2022).

In experiment [1] the target is T1, monkey PD-L1 expressed on HEK293A cells (monkey (cynomolgus), UniProt Q9NZQ7 19-290 (human entry)).
T1 construct: Full-length cDNA expressed stably; also called HEK293A/monkey PD-L1 cells; HEK293A/monkey PD-L1
Description: FACS on HEK293A/monkey PD-L1 cells, serially diluted antibody (protocol of Example 4). Here is the method:
(§1) To determine whether the anti-PD-L1 antibodies bound to human, monkey or mouse PD-L1s expressed on HEK293A cells, a cell-based binding assay was performed by FACS using the HEK293A cells stably overexpressing human, monkey and mouse PD-L1s respectively as generated in Example 1. Briefly, 10⁵ HEK293A cells in 100 μl culture medium were seeded onto each well of the 96-well plates, to which added 50 μl serially diluted anti-PD-L1 antibodies. After incubated at 4° C. for 1 hour, plates were washed 3 times with PBST. Then, APC coupled Goat Anti-Mouse IgG (Cat #:405308, BioLegend, US) diluted 500× was added to the plates. After incubation at 4° C. for 1 hour, the plates were washed with PBS for 3 times and then cell fluorescence was monitored using a FACS machine (BD).

The target of another experiment is T2, mouse PD-L1(ECD)-his (mouse, UniProt Q9EP73 19-239).
T2 construct: Bought protein; also called mouse PD-L1-his; Cat #:50010-M08H, Sino Biological; not shown: His tag
T2 sequence (Q9EP73 19-239): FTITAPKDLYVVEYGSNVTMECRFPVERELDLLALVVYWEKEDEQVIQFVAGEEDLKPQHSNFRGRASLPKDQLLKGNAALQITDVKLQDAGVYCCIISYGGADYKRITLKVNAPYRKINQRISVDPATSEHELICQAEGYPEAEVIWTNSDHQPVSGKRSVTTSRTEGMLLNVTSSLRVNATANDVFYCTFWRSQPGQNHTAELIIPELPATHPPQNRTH
Briefly: direct ELISA on coated mouse PD-L1(ECD)-his. As for the experimental part: (§2) Species-cross-reactivities of the anti-PD-L1 mAbs to monkey or mouse PD-L1s were further assessed by direct ELISA. Briefly, 96-well ELISA plates were coated with 500 ng/ml monkey PD-L1 (ECD)-his (Cat #:90251-C08H, Sino Biological, CN) or mouse PD-L1(ECD)-his (Cat #:50010-M08H, Sino Biological, CN), 100 μl per well, then added and incubated with 100 μl serially diluted anti-PD-L1 antibodies (starting at 40 μg/ml). The plates were then added and incubated with Goat anti-human IgG conjugated with HRP (Cat #:31410, Thermal, US) for 1 hour at room temperature. Plates were developed with freshly prepared Ultra-TMB (Cat #:555214, BD, US) for 5 minutes at room temperature, and absorbance was read on a SpectraMax^R i3X reader (Molecular Devies, US) at 450 nm.

In a further experiment the target is T3, monkey PD-L1 (ECD)-his (monkey, UniProt Q9NZQ7 19-238 (human entry)).
T3 construct: Bought protein; also called Cat #:90251-C08H, Sino Biological; not shown: His tag
T3 sequence (Q9NZQ7 other isoform, or with tags, fused parts or gaps): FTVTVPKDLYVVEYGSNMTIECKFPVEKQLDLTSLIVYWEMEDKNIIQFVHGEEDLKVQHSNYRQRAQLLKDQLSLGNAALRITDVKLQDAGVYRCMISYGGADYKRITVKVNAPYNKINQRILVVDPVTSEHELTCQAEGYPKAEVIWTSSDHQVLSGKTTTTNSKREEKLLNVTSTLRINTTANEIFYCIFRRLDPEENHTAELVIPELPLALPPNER
Briefly: ELISA on coated monkey PD-L1 (ECD)-his. As for the experimental part:
as §2

Experiment [2] deals with T4, mouse PD-L1 expressed on HEK293A cells (mouse, UniProt Q9EP73 19-290).
T4 construct: Full-length cDNA expressed stably; also called HEK293A/mouse PD-L1 cells; HEK293A/mouse PD-L1
T4 sequence (Q9EP73 19-290 limits assumed): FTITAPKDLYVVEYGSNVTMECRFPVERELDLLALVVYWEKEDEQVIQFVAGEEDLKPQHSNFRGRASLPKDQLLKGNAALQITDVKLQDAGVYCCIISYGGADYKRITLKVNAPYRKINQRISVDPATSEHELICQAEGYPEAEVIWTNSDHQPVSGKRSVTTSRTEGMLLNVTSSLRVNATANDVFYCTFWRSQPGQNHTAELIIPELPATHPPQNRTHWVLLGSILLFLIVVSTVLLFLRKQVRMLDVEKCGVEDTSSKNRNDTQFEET
Description: FACS on HEK293A/mouse PD-L1 cells, serially diluted antibody (protocol of Example 4). Here is the method:
as §1

A further experiment concerns the target T5, human PD-L1 (ECD)-his (human, UniProt Q9NZQ7 19-238).
T5 construct: Bought protein; it is not tied to the bought construct by a sentence of its own; also called recombinant human PD-L1(ECD)-his; Cat #:10084-H08H, Sino Biological; not shown: His tag
Briefly: ELISA on coated human PD-L1 (ECD)-his. Here is the method:
The chimeric anti-PD-L1 antibodies were further characterized for their abilities of binding to human PD-L1, monkey PD-L1 and mouse PD-L1. Briefly, ELISA plates were coated with 500 ng/ml human PD-L1 (ECD)-his (Cat #:10084-H08H, Sino Biological, CN), 100 μl per well, at 4° C. overnight. The wells were blocked with 200 μl blocking buffer (PBS containing 1% BSA, 1% goat serum and 0.05% Tween 20) for 2 hours at room temperature, added and incubated with 100 μl serially diluted anti-PD-L1 antibodies (starting at 40 μg/ml) for 1 hour at room temperature. The plates were washed for 3 times with PBST (PBS+0.05% Tween 20), added with Goat-anti-human IgG-HRP (Cat #:31410, Thermal, US) diluted 5000×, and incubated for 1 hour at room temperature. Plates were developed with freshly prepared Ultra-TMB (Cat #:555214, BD, US) for 5 minutes at room temperature. Absorbance was read on a SpectraMax^R i3X reader (Molecular Devies, US) at 450 nm.

Experiment [3] deals with T6, human PD-L1 expressed on HEK293A cells (human, UniProt Q9NZQ7 19-290).
T6 construct: Full-length cDNA expressed stably; also called HEK293A/human PD-L1 cells; HEK293A/human PD-L1
T6 sequence (Q9NZQ7 19-290 limits assumed): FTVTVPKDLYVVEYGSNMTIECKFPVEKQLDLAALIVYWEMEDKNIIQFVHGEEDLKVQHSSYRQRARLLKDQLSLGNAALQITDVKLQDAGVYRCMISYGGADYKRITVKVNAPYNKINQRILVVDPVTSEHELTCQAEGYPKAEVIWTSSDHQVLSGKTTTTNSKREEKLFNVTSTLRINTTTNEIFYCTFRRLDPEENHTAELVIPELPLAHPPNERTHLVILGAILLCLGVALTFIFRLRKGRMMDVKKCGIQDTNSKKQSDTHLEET
Briefly: FACS on HEK293A/human PD-L1 cells, serially diluted antibody (protocol of Example 4). As for the experimental part: as §1

In experiment [4] the target is T6, human PD-L1 expressed on HEK293A cells. Description: FACS blocking assay on HEK293A/human PD-L1 cells; blocked ligand PD1-hFc (protocol of Example 6). As for the experimental part:
Briefly, 10⁵ HEK293A/human PD-L1 cells in 100 μl culture medium were seeded onto each well of 96-well plates, to which added 50 μl serially diluted anti-PD-L1 antibodies. After incubated at 4° C. for 1 hour, the plates were washed 3 times with PBST. […] After incubation at 4° C. for 1 hour, the plates were washed with PBST for 3 times, and added with PE coupled Goat Anti-human IgG (Cat #:PAI-86078, Thermofisher, US) diluted 500×. After incubation at 4° C. for 1 hour, the plates were washed with PBST for 3 times and then cell fluorescence was monitored using a FACS machine (BD).

T1 sequence (Q9NZQ7 other isoform, or with tags, fused parts or gaps limits assumed): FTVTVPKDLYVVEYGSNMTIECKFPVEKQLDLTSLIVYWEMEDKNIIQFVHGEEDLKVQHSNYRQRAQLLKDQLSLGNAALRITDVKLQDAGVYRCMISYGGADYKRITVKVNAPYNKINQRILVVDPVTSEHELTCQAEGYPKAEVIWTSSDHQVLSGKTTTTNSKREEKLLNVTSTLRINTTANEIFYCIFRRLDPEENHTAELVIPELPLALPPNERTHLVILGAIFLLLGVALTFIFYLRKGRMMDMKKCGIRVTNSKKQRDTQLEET
T5 sequence (Q9NZQ7 19-238): as the sequence (Q9NZQ7 other isoform, or with tags, fused parts or gaps) above, with T33A, S34A, N62S, Q68R, R82Q, L173F, A185T, I192T, L215H counted along it

B1: chimeric 3C2 antibody (antibody, human IgG1, kappa, N297A, V domains shown)
VH: QVQLNQSGPELMKAGTSVKISCKASGYSFTDYHVNWVKQRPGQGLEWIGWIFPGSGRTFYTDKFKGKATLTVDLSFTTAYIMLNSLTSEDSAVYFCATDYGTSGYGLVYWGQGTSVTVSS
VL: DIQMTQSSSYLSVSLGGRVTISCKASDRINNWLAWYQQKPGNAPRLLISGATSLETGVPSRFSGSGSGKDYTLSITSLQTEDVAVYYCQQYWNIPFTFGSGTKLEIKR
For B1, the concentration giving a half-maximal response (EC50 (read off the curve)) in experiment [1] and in experiment [3] was ~100 ng/mL throughout. Also, the binding result with mouse PD-L1(ECD)-his is “no binding (tested: starting at 40 µg/ml)”; in experiment [2], “no binding (tested: LOG Con. about 4.6 (about 40000 ng/ml))”. For the same molecule, the EC50 with monkey PD-L1 (ECD)-his stood at 0.172 nM; in the experiment with human PD-L1 (ECD)-his, 0.0456 nM. Besides, the “IC50 (read off the curve)” value in experiment [4] is ~200 ng/mL.
